Measurements published in IntAct's records for PubMed 28360110.

B1: Solute carrier family 26 member 9 (Homo sapiens), Q7LBE3-1 (parent)
chain: MSQPRPRYVVDRAAYSLTLFDDEFEKKDRTYPVGEKLRNAFRCSSAKIKAVVFGLLPVLSWLPKYKIKDYIIPDLLGGLSGGSIQVPQGMAFALLANLPAVNGLYSSFFPLLTYFFLGGVHQMVPGTFAVISILVGNICLQLAPESKFQVFNNATNESYVDTAAMEAERLHVSATLACLTAIIQMGLGFMQFGFVAIYLSESFIRGFMTAAGLQILISVLKYIFGLTIPSYTGPGSIVFTFIDICKNLPHTNIASLIFALISGAFLVLVKELNARYMHKIRFPIPTEMIVVVVATAISGGCKMPKKYHMQIVGEIQRGFPTPVSPVVSQWKDMIGTAFSLAIVSYVINLAMGRTLANKHGYDVDSNQEMIALGCSNFFGSFFKIHVICCALSVTLAVDGAGGKSQVASLCVSLVVMITMLVLGIYLYPLPKSVLGALIAVNLKNSLKQLTDPYYLWRKSKLDCCIWVVSFLSSFFLSLPYGVAVGVAFSVLVVVFQTQFRNGYALAQVMDTDIYVNPKTYNRAQDIQGIKIITYCSPLYFANSEIFRQKVIAKTGMDPQKVLLAKQKYLKKQEKRRMRPTQQRRSLFMKTKTVSLQELQQDFENAPPTDPNNNQTPANGTSVSYITFSPDSSSPAQSEPPASAEAPGEPSDMLASVPPFVTFHTLILDMSGVSFVDLMGIKALAKLSSTYGKIGVKVFLVNIHAQVYNDISHGGVFEDGSLECKHVFPSIHDAVLFAQANARDVTPGHNFQGAPGDAELSLYDSEEDIRSYWDLEQEMFGSMFHAETLTAL

Variants of: B1
Details: with gopc_human GOPC

| effect of a mutation on the interaction | Variant |
| --- | --- |
| decreasing interaction strength | T789A |
